# Assay results from paper PMC2889002.
# Target: GST fusion of the full-length cytoplasmic loop of connexin43 (GST-CLFL) (UniProt P23242)
# Assay: pull-down
# UniProt P23242, sequence (P23242 98-155): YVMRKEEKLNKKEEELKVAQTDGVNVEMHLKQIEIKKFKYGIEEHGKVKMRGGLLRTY
substance,measurement,value
β-tubulin (Tubulin β5/2c) of mouse brain (from UniProt P99024 1-444) (natural protein),affinity relative to that of Cx43-CT for β-tubulin,0.2 fold
